The Immune Epitope Database (IEDB)

Assays:
HLA-A*01:01 [1] = assay: IEDB peptide-MHC binding, purified MHC/competitive/fluorescence; filed as Kd, often an IC50 or EC50 that approximates it; ≥ and ≤ were set here for values at or beyond the usual limits of such assays
HLA-B*48:01 = assay: IEDB peptide-MHC binding, purified MHC/direct/fluorescence; filed as Kd, often an IC50 or EC50 that approximates it; ≥ and ≤ were set here for values at or beyond the usual limits of such assays
HLA-C*14:02 = assay: as above
HLA-A*26:02 = assay: as above
HLA-A*26:01 [2] = assay: as above
HLA-A*31:01 [3] = assay: IEDB peptide-MHC binding, purified MHC/competitive/fluorescence; filed as Kd, often an IC50 or EC50 that approximates it; ≥ and ≤ were set here for values at or beyond the usual limits of such assays; settings: source organism: Francisella tularensis subsp. tularensis FSC198
HLA-A*24:03 = assay: as above; settings: source organism: Francisella tularensis subsp. tularensis FSC198
HLA-A*69:01 [4] = assay: IEDB peptide-MHC binding, purified MHC/direct/fluorescence; filed as Kd, often an IC50 or EC50 that approximates it; ≥ and ≤ were set here for values at or beyond the usual limits of such assays; settings: source organism: Francisella tularensis subsp. holarctica LVS
HLA-C*06:02 = assay: as above
HLA-B*35:01 = assay: IEDB peptide-MHC binding, purified MHC/competitive/fluorescence; filed as Kd, often an IC50 or EC50 that approximates it; ≥ and ≤ were set here for values at or beyond the usual limits of such assays; settings: source organism: Mycobacterium tuberculosis H37Rv
HLA-B*15:01 [5] = assay: IEDB peptide-MHC binding, purified MHC/direct/fluorescence; filed as Kd, often an IC50 or EC50 that approximates it; ≥ and ≤ were set here for values at or beyond the usual limits of such assays
HLA-B*46:01 [6] = assay: IEDB peptide-MHC binding, purified MHC/competitive/fluorescence; filed as Kd, often an IC50 or EC50 that approximates it; ≥ and ≤ were set here for values at or beyond the usual limits of such assays; settings: source organism: Orthohantavirus andesense
HLA-B*51:01 = assay: as above; settings: source organism: Orthohantavirus andesense
HLA-B*15:01 [7] = assay: as above
HLA-B*39:01 [8] = assay: as above; settings: source organism: Orthohantavirus andesense
HLA-A*69:01 [9] = assay: as above
HLA-A*26:01 [10] = assay: as above
HLA-B*27:03 = assay: as above; settings: source organism: Orthohantavirus andesense
HLA-B*18:01 = assay: as above; settings: source organism: Orthohantavirus andesense
HLA-A*03:01 [11] = assay: IEDB peptide-MHC binding, purified MHC/direct/fluorescence; filed as Kd, often an IC50 or EC50 that approximates it; ≥ and ≤ were set here for values at or beyond the usual limits of such assays
HLA-A*68:02 = assay: as above; settings: source organism: Calabazo virus
HLA-A*02:16 = assay: as above; settings: source organism: Calabazo virus
HLA-A*02:03 = assay: as above; settings: source organism: Calabazo virus
HLA-C*15:02 = assay: as above; settings: source organism: Orthohantavirus andesense
HLA-B*58:01 [12] = assay: as above
HLA-A*33:01 = assay: IEDB peptide-MHC binding, purified MHC/competitive/radioactivity; filed as Kd, often an IC50 or EC50 that approximates it; ≥ and ≤ were set here for values at or beyond the usual limits of such assays; settings: source organism: Vaccinia virus WR
HLA-A*68:01 = assay: as above; settings: source organism: Vaccinia virus WR
HLA-A*03:01 [13] = assay: IEDB peptide-MHC binding, purified MHC/competitive/fluorescence; filed as Kd, often an IC50 or EC50 that approximates it; ≥ and ≤ were set here for values at or beyond the usual limits of such assays
HLA-B*57:01 = assay: as above; settings: source organism: Variola virus
HLA-A*11:01 = assay: as above; settings: source organism: Variola virus
HLA-B*15:17 = assay: as above; settings: source organism: Variola virus
HLA-B*46:01 [14] = assay: IEDB peptide-MHC binding, purified MHC/direct/fluorescence; filed as Kd, often an IC50 or EC50 that approximates it; ≥ and ≤ were set here for values at or beyond the usual limits of such assays; settings: source organism: Camelpox virus M-96
HLA-B*27:05 = assay: as above
HLA-A*02:01 = assay: as above
HLA-A*31:01 [15] = assay: as above; settings: source organism: Camelpox virus M-96
HLA-B*40:01 = assay: as above; settings: source organism: Camelpox virus M-96
HLA-B*39:01 [16] = assay: as above; settings: source organism: Influenza A virus (A/mallard/Norway/685/05(H9N2))
HLA-B*58:01 [17] = assay: IEDB peptide-MHC binding, purified MHC/competitive/fluorescence; filed as Kd, often an IC50 or EC50 that approximates it; ≥ and ≤ were set here for values at or beyond the usual limits of such assays; settings: source organism: Burkholderia orbicola
HLA-A*01:01 [18] = assay: IEDB peptide-MHC binding, purified MHC/direct/fluorescence; filed as Kd, often an IC50 or EC50 that approximates it; ≥ and ≤ were set here for values at or beyond the usual limits of such assays; settings: source organism: Burkholderia mallei
HLA-B*07:02 = assay: as above; settings: source organism: Burkholderia mallei
[19] = source organism: Burkholderia orbicola
[20] = source organism: Vibrio cholerae V51
[21] = source organism: Orthohantavirus andesense
[22] = source organism: Camelpox virus M-96
[23] = source organism: Burkholderia mallei ATCC 23344
[24] = source organism: Burkholderia mallei

LVFLGPGLY showed a Kd (HLA-A*01:01 [1]; source organism: Homo sapiens) of 221 nM.

AAAAFEAAL gave a Kd (HLA-B*48:01; source organism: Mycobacterium tuberculosis str. Haarlem) of 175 nM and a Kd (HLA-C*14:02; [19]) of 166 nM.

AIARGFHFY was tested, and the Kd (HLA-A*26:02; [20]) was 107 nM and the Kd (HLA-A*26:01 [2]; [20]) was 1070 nM.

KYYIYRLYF was tested, and the Kd (HLA-A*31:01 [3]) was no less than 20000 nM, the Kd (HLA-A*24:03) was 0.8 nM and the Kd (HLA-A*69:01 [4]) was no less than 20000 nM. The Kd (HLA-C*06:02; source organism: Francisella tularensis subsp. tularensis FSC198) was no less than 20000 nM.

AMAAAAAPY showed a Kd (HLA-B*35:01) of 8.3 nM, a Kd (HLA-B*15:01 [5]; source organism: Mycobacterium tuberculosis variant bovis BCG str. Pasteur 1173P2) of 294 nM and a Kd (HLA-C*14:02; source organism: Mycobacterium tuberculosis H37Rv) of 94 nM.

RMMATKDSF showed a Kd (HLA-B*46:01 [6]) of no less than 20000 nM, a Kd (HLA-B*51:01) of no less than 20000 nM and a Kd (HLA-B*15:01 [7]; [21]) of 44.1 nM. It also gave a Kd (HLA-B*39:01 [8]) of no less than 20000 nM, a Kd (HLA-A*69:01 [9]; [21]) of no less than 20000 nM and a Kd (HLA-A*26:01 [10]; [21]) of no less than 20000 nM. The Kd (HLA-B*27:03) was no less than 20000 nM, the Kd (HLA-B*18:01) was no less than 20000 nM and the Kd (HLA-A*03:01 [11]; source organism: Calabazo virus) was no less than 20000 nM. For the same sequence, the Kd (HLA-A*68:02) was no less than 20000 nM, the Kd (HLA-A*02:16) was no less than 20000 nM and the Kd (HLA-A*02:03) was no less than 20000 nM. For the same sequence, the Kd (HLA-C*15:02) was no less than 20000 nM, the Kd (HLA-B*58:01 [12]; source organism: Orthohantavirus moroense) was 6.5 nM and the Kd (HLA-C*14:02; [21]) was 157 nM.

Sequence ETIEILRNY has a Kd (HLA-A*33:01) of 2140 nM, a Kd (HLA-A*68:01) of 14.6 nM and a Kd (HLA-A*03:01 [13]; source organism: Variola virus) of 1950 nM. For the same sequence, the Kd (HLA-A*01:01 [1]; source organism: Variola virus) was 3600 nM, the Kd (HLA-A*69:01 [9]; source organism: Variola virus) was no less than 20000 nM and the Kd (HLA-B*57:01) was 926 nM. For the same sequence, the Kd (HLA-A*11:01) was no less than 20000 nM, the Kd (HLA-B*15:17) was 86.9 nM and the Kd (HLA-B*46:01 [14]) was no less than 20000 nM. It also gave a Kd (HLA-B*27:05; [22]) of no less than 20000 nM, a Kd (HLA-A*02:01; [22]) of no less than 20000 nM and a Kd (HLA-B*58:01 [12]; [22]) of no less than 20000 nM. For the same sequence, the Kd (HLA-B*48:01; [22]) was no less than 20000 nM, the Kd (HLA-A*31:01 [15]) was no less than 20000 nM and the Kd (HLA-B*40:01) was no less than 20000 nM. It also gave a Kd (HLA-A*26:01 [2]; [22]) of 2.1 nM.

HRTLLMNEL was tested, and the Kd (HLA-B*39:01 [16]) was no less than 20000 nM and the Kd (HLA-C*06:02; source organism: Influenza A virus (A/nt/60/1968(H3N2))) was no less than 20000 nM.

With ASAAHLAAY the Kd (HLA-A*03:01 [13]; [19]) was 700 nM, the Kd (HLA-A*01:01 [1]; [19]) was 23.6 nM and the Kd (HLA-B*15:01 [7]; [19]) was 156 nM. The Kd (HLA-B*58:01 [17]) was 1260 nM and the Kd (HLA-A*26:01 [10]; [19]) was 775 nM.

With STYQPLPLY the Kd (HLA-A*26:02; [23]) was no more than 1 nM, the Kd (HLA-A*03:01 [11]; [24]) was no less than 20000 nM and the Kd (HLA-A*01:01 [18]) was 971 nM. For the same sequence, the Kd (HLA-B*15:01 [5]; [24]) was 24.5 nM, the Kd (HLA-B*27:05; [24]) was no less than 20000 nM and the Kd (HLA-B*07:02) was no less than 20000 nM. It also gave a Kd (HLA-A*02:01; [24]) of no less than 20000 nM, a Kd (HLA-B*58:01 [12]; [24]) of 195 nM and a Kd (HLA-A*26:01 [2]; [23]) of 39 nM.
